From article PMC9352680, “A comprehensive thermodynamic model for RNA binding by the Saccharomyces cerevisiae Pumilio protein PUF4”

T1: PUF4 RNA-binding domain (Saccharomyces cerevisiae, UniProt P25339 537-888)
T1 sequence: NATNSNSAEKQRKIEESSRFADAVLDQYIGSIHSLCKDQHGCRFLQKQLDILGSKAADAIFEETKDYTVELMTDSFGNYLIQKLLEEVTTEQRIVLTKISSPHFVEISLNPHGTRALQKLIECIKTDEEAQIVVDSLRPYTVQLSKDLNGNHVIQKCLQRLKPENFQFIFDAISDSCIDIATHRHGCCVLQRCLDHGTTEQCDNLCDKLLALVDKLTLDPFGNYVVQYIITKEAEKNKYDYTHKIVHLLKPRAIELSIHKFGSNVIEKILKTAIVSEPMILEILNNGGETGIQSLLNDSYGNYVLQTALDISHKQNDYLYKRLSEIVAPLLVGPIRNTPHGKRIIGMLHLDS


Target: T1, PUF4 RNA-binding domain
Assay: Mg; RNA-MaP; 20 mM Na-HEPES pH 7.4, 30 mM KOAc, 0.75 mM MgCl2, 0.1% Tween-20, 5% glycerol, 0.1 mg/mL BSA, 2 mM DTT; 25 C; 0.0125-409.6 nM protein
Conditions: tags: N-His6-TEV cleaved; C-SNAP kept, Cy3B-labelled; label: tethered on chip by stalled RNA polymerase

Binder | Kd
UCUCUUCAUAUAUAUUAGGUCUCUU (ssRNA) [Id_ii_S1_P4E.3_K4.2_C4.2_[T-1A]_H4.2_A4.1_F4.1_T4.2_[T11G]] | 18.2 nM
UCUCUUACUAUAUAUUAUAUCUCUU (ssRNA) [Id_ii_S1_P4E.3_K4.2_C4.2_[C-2A]_[T-1C]_H4.2_A4.1_F4.1_T4.2_[G10T]_[T11A]] | 27.2 nM
UCUCUUCAUAUAUAUUAGAUCUCUU (ssRNA) [Id_ii_S1_P4E.3_K4.2_C4.2_[T-1A]_H4.2_A4.1_F4.1_T4.2_[T11A]] | 19.9 nM
UCUCUUCAUAUAUAUUAACUCUCUU (ssRNA) [Id_ii_S1_P4E.3_K4.2_C4.2_[T-1A]_H4.2_A4.1_F4.1_T4.2_[G10A]_[T11C]] | 39.7 nM
UCUCUUAUUAUAUAUUAAAUCUCUU (ssRNA) [Id_ii_S1_P4E.3_K4.2_C4.2_[C-2A]_H4.2_A4.1_F4.1_T4.2_[G10A]_[T11A]] | 72.4 nM
UCUCUUAUUAUAUAUUACUUCUCUU (ssRNA) [Id_ii_S1_P4E.3_K4.2_C4.2_[C-2A]_H4.2_A4.1_F4.1_T4.2_[G10C]] | 20.1 nM
UCUCUUAAUAUAUAUUAUUUCUCUU (ssRNA) [Id_ii_S1_P4E.3_K4.2_C4.2_[C-2A]_[T-1A]_H4.2_A4.1_F4.1_T4.2_[G10T]] | 54.1 nM
UCUCUUCAUAUAUAUUAAUUCUCUU (ssRNA) [Id_ii_S1_P4E.3_K4.2_C4.2_[T-1A]_H4.2_A4.1_F4.1_T4.2_[G10A]] | 36.3 nM
UCUCUUAAUAUAUAUUACUUCUCUU (ssRNA) [Id_ii_S1_P4E.3_K4.2_C4.2_[C-2A]_[T-1A]_H4.2_A4.1_F4.1_T4.2_[G10C]] | 56.4 nM
UCUCUUACUAUAUAUUAUUUCUCUU (ssRNA) [Id_ii_S1_P4E.3_K4.2_C4.2_[C-2A]_[T-1C]_H4.2_A4.1_F4.1_T4.2_[G10T]] | 25.9 nM
UCUCUUCCUAUAUAUUACGUCUCUU (ssRNA) [Id_ii_S1_P4E.3_K4.2_C4.2_[T-1C]_H4.2_A4.1_F4.1_T4.2_[G10C]_[T11G]] | 32.8 nM
UCUCUUCCUAUAUAUUAACUCUCUU (ssRNA) [Id_ii_S1_P4E.3_K4.2_C4.2_[T-1C]_H4.2_A4.1_F4.1_T4.2_[G10A]_[T11C]] | 29.3 nM
UCUCUUAUUAUAUAUUAUAUCUCUU (ssRNA) [Id_ii_S1_P4E.3_K4.2_C4.2_[C-2A]_H4.2_A4.1_F4.1_T4.2_[G10T]_[T11A]] | 26.5 nM
UCUCUUCUUAUAUAUUACUUCUCUU (ssRNA) [Id_ii_S1_P4E.3_K4.2_C4.2_H4.2_A4.1_F4.1_T4.2_[G10C]] | 18.3 nM
UCUCUUCCUAUAUAUUAAGUCUCUU (ssRNA) [Id_ii_S1_P4E.3_K4.2_C4.2_[T-1C]_H4.2_A4.1_F4.1_T4.2_[G10A]_[T11G]] | 87.6 nM
UCUCUUAUUAUAUAUUAUUUCUCUU (ssRNA) [Id_ii_S1_P4E.3_K4.2_C4.2_[C-2A]_H4.2_A4.1_F4.1_T4.2_[G10T]] | 9.53 nM

Binder | Kd
UCUCUUCCUAUAUAUUACCUCUCUU (ssRNA) [Id_ii_S1_P4E.3_K4.2_C4.2_[T-1C]_H4.2_A4.1_F4.1_T4.2_[G10C]_[T11C]] | 28 nM
UCUCUUCGUAUAUAUUAAGUCUCUU (ssRNA) [Id_ii_S1_P4E.3_K4.2_C4.2_[T-1G]_H4.2_A4.1_F4.1_T4.2_[G10A]_[T11G]] | 101 nM
UCUCUUAAUAUAUAUUACCUCUCUU (ssRNA) [Id_ii_S1_P4E.3_K4.2_C4.2_[C-2A]_[T-1A]_H4.2_A4.1_F4.1_T4.2_[G10C]_[T11C]] | 76.2 nM
UCUCUUAUUAUAUAUUAAUUCUCUU (ssRNA) [Id_ii_S1_P4E.3_K4.2_C4.2_[C-2A]_H4.2_A4.1_F4.1_T4.2_[G10A]] | 25.6 nM
UCUCUUCAUAUAUAUUACUUCUCUU (ssRNA) [Id_ii_S1_P4E.3_K4.2_C4.2_[T-1A]_H4.2_A4.1_F4.1_T4.2_[G10C]] | 21 nM
UCUCUUAAUAUAUAUUACGUCUCUU (ssRNA) [Id_ii_S1_P4E.3_K4.2_C4.2_[C-2A]_[T-1A]_H4.2_A4.1_F4.1_T4.2_[G10C]_[T11G]] | 163 nM
UCUCUUUGUCUUUUAUCUCUU (ssRNA) [Ib_S1_P4E.1_K4.1_C4.1_H4.1_[A4C]_A4.1_[A6T]_F4.1_T4.1] | 333 nM
UCUCUUCAUAUAUAUUAGCUCUCUU (ssRNA) [Id_ii_S1_P4E.3_K4.2_C4.2_[T-1A]_H4.2_A4.1_F4.1_T4.2_[T11C]] | 8.31 nM
UCUCUUAUUAUAUAUUAUCUCUCUU (ssRNA) [Id_ii_S1_P4E.3_K4.2_C4.2_[C-2A]_H4.2_A4.1_F4.1_T4.2_[G10T]_[T11C]] | 18.9 nM
UCUCUUACUAUAUAUUAAUUCUCUU (ssRNA) [Id_ii_S1_P4E.3_K4.2_C4.2_[C-2A]_[T-1C]_H4.2_A4.1_F4.1_T4.2_[G10A]] | 37.5 nM
UCUCUUCGUAUAUAUUAAAUCUCUU (ssRNA) [Id_ii_S1_P4E.3_K4.2_C4.2_[T-1G]_H4.2_A4.1_F4.1_T4.2_[G10A]_[T11A]] | 51.6 nM
UCUCUUCCUAUAUAUUAAUUCUCUU (ssRNA) [Id_ii_S1_P4E.3_K4.2_C4.2_[T-1C]_H4.2_A4.1_F4.1_T4.2_[G10A]] | 27.1 nM
UCUCUUCCUAUAUAUUAUAUCUCUU (ssRNA) [Id_ii_S1_P4E.3_K4.2_C4.2_[T-1C]_H4.2_A4.1_F4.1_T4.2_[G10T]_[T11A]] | 14.5 nM
UCUCUUCAUAUAUAUUAUUUCUCUU (ssRNA) [Id_ii_S1_P4E.3_K4.2_C4.2_[T-1A]_H4.2_A4.1_F4.1_T4.2_[G10T]] | 21.2 nM
UCUCUUACUAUAUAUUAACUCUCUU (ssRNA) [Id_ii_S1_P4E.3_K4.2_C4.2_[C-2A]_[T-1C]_H4.2_A4.1_F4.1_T4.2_[G10A]_[T11C]] | 33 nM
